Experimental data: patent US20050037969A1 (ARBOR VITA, published 2005)
Ends that are not written are not given here. * marks the point of attachment. Biotin = O=C1N[C@H]2[C@H](CS[C@H]2CCCCC(=O)*)N1

Assays:
Experiment in all cases: A/G assays
[1] = target: T1, KIAA0807 (PDZ domain)-GST fusion protein (human, UniProt Q6P0Q8 1104-1192)
T1 construct: also called K807; KIAA807; not shown: glutathione S-transferase encoded by vector pGEX-3X (Pharmacia)
T1 sequence: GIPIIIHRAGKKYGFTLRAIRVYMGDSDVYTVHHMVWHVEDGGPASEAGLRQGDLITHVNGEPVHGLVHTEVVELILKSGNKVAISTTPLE

[2] = target: T2, GST-TAX-IP43 PDZ domain fusion protein (human, UniProt Q13884 109-180)
T2 construct: also called TAX43; not shown: glutathione S-transferase encoded by vector pGEX-3X (Pharmacia)
T2 sequence: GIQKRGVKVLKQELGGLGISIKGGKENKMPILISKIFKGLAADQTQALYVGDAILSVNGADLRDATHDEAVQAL

[3] = target: T3, MINT3 PDZ-GST fusion protein
T3 construct: Order of GST and PDZ part and limits not seen in the excerpts
T3 chain: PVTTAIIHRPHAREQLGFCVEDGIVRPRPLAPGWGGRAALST

[4] = target: T4, TAX-IP2L PDZ-GST fusion protein (Homo sapiens (Human), UniProt Q8TF64 107-197)
T4 construct: Order of GST and PDZ part and limits not seen in the excerpts
T4 sequence: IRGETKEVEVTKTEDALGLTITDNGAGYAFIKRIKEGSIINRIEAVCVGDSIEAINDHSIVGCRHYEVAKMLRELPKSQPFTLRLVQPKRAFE

[5] = target: T5, K858 PDZ-GST fusion protein (Homo sapiens (Human), UniProt Q8WWI1 1038-1131)
T5 construct: Order of GST and PDZ part and limits not seen in the excerpts
T5 sequence: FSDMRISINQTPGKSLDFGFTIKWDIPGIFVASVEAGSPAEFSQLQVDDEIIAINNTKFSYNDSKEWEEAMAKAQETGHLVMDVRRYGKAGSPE

[6] = target: T6, GST-MPP1 PDZ domain fusion protein (Homo sapiens (Human), UniProt Q00013 67-152)
T6 construct: also called p55; 55 Kd erythrocyte membrane protein; not shown: glutathione S-transferase encoded by vector pGEX-3X (Pharmacia)
T6 sequence: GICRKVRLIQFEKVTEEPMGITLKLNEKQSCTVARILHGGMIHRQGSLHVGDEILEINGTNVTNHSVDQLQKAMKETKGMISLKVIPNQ

[7] = target: T7, GST-TIAM1 PDZ domain fusion protein (Homo sapiens (Human), UniProt Q13009 845-931)
T7 construct: also called TLAM1; T-lymphoma invasion and metastasis inducing protein 1; not shown: glutathione S-transferase encoded by vector pGEX-3X (Pharmacia)

[8] = target: T8, ConEn PDZ-GST fusion protein (Homo sapiens (Human), UniProt Q969H4 193-287)
T8 construct: The label ConEn is not explained in the excerpts
T8 sequence: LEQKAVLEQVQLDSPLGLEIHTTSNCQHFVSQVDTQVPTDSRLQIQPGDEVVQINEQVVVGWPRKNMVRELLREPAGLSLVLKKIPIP

[9] = target: T9, GST-PTN-4 PDZ domain fusion protein (Homo sapiens (Human), UniProt P29074 517-605)
T9 construct: also called protein-tyrosine phosphatase meg1; not shown: glutathione S-transferase encoded by vector pGEX-3X (Pharmacia)
T9 sequence: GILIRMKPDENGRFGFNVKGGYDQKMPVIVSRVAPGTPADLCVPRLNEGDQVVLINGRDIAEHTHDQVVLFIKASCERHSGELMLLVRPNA

[10] = target: T10, GST-PDZK1 fusion protein (PDZ domains 2-4) (Homo sapiens, UniProt Q5T2W1 134-457)
T10 construct: not shown: glutathione S-transferase encoded by vector pGEX-3X (Pharmacia)
T10 sequence: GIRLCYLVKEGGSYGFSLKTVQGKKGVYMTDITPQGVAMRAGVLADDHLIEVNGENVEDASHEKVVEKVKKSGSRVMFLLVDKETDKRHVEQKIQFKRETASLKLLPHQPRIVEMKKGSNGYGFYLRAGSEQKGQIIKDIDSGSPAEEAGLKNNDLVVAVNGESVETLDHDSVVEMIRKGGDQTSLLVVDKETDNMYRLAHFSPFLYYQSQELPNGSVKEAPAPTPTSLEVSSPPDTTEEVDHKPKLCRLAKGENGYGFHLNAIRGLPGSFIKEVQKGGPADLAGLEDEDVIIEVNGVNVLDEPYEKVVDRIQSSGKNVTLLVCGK

[11] = target: T11, GST-prIL16 fusion protein (PDZ domains 1-2) (Homo sapiens (Human), UniProt Q14005 1111-1324)
T11 construct: also called putative interleukin 16 precursor; not shown: glutathione S-transferase encoded by vector pGEX-3X (Pharmacia)
T11 sequence: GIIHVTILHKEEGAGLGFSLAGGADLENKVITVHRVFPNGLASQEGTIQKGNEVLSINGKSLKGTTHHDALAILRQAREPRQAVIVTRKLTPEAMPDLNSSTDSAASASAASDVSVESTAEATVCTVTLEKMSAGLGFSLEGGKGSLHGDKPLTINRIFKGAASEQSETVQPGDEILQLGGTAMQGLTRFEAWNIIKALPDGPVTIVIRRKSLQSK

[12] = target: T12, GST-RGS12 PDZ domain fusion protein (human, UniProt O14924 17-85)
T12 construct: also called human regulator of G-protein signalling 12; not shown: glutathione S-transferase encoded by vector pGEX-3X (Pharmacia)
T12 sequence: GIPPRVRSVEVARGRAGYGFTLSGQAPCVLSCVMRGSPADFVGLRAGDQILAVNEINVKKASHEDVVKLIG

[13] = target: T13, GST-AF6 PDZ domain fusion protein (Homo sapiens (Human), UniProt P55196 1001-1093)
T13 construct: also called af-6 protein; not shown: glutathione S-transferase encoded by vector pGEX-3X (Pharmacia)
T13 sequence: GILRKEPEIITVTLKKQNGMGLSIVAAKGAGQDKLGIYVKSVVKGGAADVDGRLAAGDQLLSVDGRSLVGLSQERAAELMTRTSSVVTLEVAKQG

[14] = target: T14, PICK1 PDZ-GST fusion protein (Bos taurus (Bovine), UniProt Q2T9M1 17-105)
T14 construct: Order of GST and PDZ part and limits not seen in the excerpts

[15] = target: T15, NSP PDZ-GST fusion protein (Homo sapiens (Human), UniProt Q92743 370-466)
T15 construct: The label NSP is not explained in the excerpts

[16] = target: T16, K316 PDZ-GST fusion protein (Homo sapiens (Human), UniProt Q14CM0 72-159)
T16 construct: Order of GST and PDZ part and limits not seen in the excerpts

Measured: binding result

T14 sequence (Q2T9M1 other isoform, or with tags, fused parts or gaps limits assumed): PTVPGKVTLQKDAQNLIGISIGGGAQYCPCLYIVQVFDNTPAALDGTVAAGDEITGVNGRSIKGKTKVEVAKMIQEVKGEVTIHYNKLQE
T16 sequence (Q14CM0 72-159 limits assumed): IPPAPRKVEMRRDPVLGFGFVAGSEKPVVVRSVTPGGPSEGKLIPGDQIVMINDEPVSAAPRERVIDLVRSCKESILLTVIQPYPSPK
T15 sequence (Q92743 other isoform, or with tags, fused parts or gaps limits assumed): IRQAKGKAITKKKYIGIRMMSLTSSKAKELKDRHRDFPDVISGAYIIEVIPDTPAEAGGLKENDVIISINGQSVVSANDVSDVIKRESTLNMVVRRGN
T7 sequence (Q13009 other isoform, or with tags, fused parts or gaps): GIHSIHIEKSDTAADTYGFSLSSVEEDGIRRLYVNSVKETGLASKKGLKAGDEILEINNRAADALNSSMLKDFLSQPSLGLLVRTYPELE

Biotin-PYGTAMEKAQLKPPATSDA (also called CD49E (alpha-4)) [CD49E C-terminal peptide AA11L, biotinylated]
no binding: all assays above

Biotin-VTSPNKHLGLVTPHKTELV [CD83 C-terminal peptide AA47L, biotinylated]
no binding: all assays above

Biotin-YSATYSELEDPGEMSPPIDL (also called FceRlb; FcεRβI) [FceRIb C-terminal peptide AA25L, biotinylated]
no binding: all assays above

B1: CD138 C-terminal peptide AA18L, biotinylated (peptide)
peptide: Biotin-PKQANGGAYQKPTKQEEFYA
notes: also called CD138 (syndecan-1); CD138 (syndecan)
not listed: [7]
no binding: all other assays above

Biotin-KDITSDSENSNFRNEIQSLV (also called CD95 (Apo-1/Fas); AAI3L) [CD95 (Fas) C-terminal peptide AA13L, biotinylated]
no binding: all assays above

B2: CC CKR-1R C-terminal peptide AA41L (peptide)
peptide: Biotin-LERVSSTSPSTGEHELSAGF
notes: Only the last four residues are seen in the excerpts
no binding: all assays above

B3: CC CKR-2 C-terminal peptide AA42L (peptide)
peptide: Biotin-GKGKSIGRAPEASLQDKEGA
notes: as for B2
no binding: all assays above

Biotin-DLGNMEENKKLEENNHKTEA (also called CD166 (CD6L)) [CD166 C-terminal peptide AA20L, biotinylated]
no binding: all assays above
